Data set [1] deals with T1, TOC1-CCT (Arabidopsis, UniProt Q9LKL2 533-575).
T1 chain: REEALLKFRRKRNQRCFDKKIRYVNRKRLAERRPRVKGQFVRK
Briefly: EMSA.

The target in data set [2] is T1, TOC1-CCT. Briefly: ITC.
Data set [3] deals with T2, CCT (NMR construct) (Arabidopsis, UniProt Q9LKL2 533-590).
T2 sequence: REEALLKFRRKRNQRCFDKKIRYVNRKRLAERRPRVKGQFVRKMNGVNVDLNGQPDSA
Briefly: NMR.

The target in data set [4] is T3, CCTN (Arabidopsis, UniProt Q9LKL2 533-565).
T3 chain: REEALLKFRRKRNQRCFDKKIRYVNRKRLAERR
Briefly: NMR.

B1: G-rich RNA probe (ssRNA)
RNA: AAAUAAAUGGAGGGGAAAAAUAAAU
Consider B1, for which the Kd worked out at 110 ± 6 nM in data set [1] and 124 ± 8 nM in data set [2].

B2: NMR RNA (ssRNA)
RNA: UGGAGGGGA
Consider B2, for which the binding result in data set [3] and in data set [4] was “binds” throughout.

Source of the values: article doi:10.1101/2020.05.06.071340.
